From paper PMC2148073

Assays:
[1] = target: native syntaxin 1A from PC12 cells (rat (endogenous in PC12)) (UniProt P32851)
[2] = target: native syntaxin 1A from PC12 cells (rat (endogenous in PC12)) (UniProt P32851); remark: listed apart in the source

UniProt P32851, sequence (P32851 whole entry): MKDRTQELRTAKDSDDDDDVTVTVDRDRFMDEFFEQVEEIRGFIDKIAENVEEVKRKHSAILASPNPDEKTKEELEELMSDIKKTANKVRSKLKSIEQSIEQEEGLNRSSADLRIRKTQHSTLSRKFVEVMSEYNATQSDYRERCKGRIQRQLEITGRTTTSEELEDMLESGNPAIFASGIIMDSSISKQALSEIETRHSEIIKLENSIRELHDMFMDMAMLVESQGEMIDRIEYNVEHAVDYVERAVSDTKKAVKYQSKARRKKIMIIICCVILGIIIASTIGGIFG

With “GST-fused Kv2.1-C1 protein (domain or fragment)” the inhibition of Ca2+-triggered [3H]-NE release from cracked PC12 cells by 10–20 µM GST-fusion peptide present during priming and triggering; pair blocked: endogenous Kv2.1 with syntaxin [1] was 60%, the half-maximal inhibition of Ca2+-triggered [3H]-NE release from cracked PC12 cells (dose response of GST-Kv2.1-C1); pair blocked: endogenous Kv2.1 with syntaxin [2] was 2 µM and the inhibition of Ca2+-triggered [3H]-NE release from cracked PC12 cells at increasing concentrations of GST-Kv2.1-C1 (from 10 nM; saturation at 5 µM); pair blocked: endogenous Kv2.1 with syntaxin [2] was 57%.
